In patent US20260250769, “METHODS FOR DETERMINING THE PRESENCE OR RISK OF DEVELOPING FACIOSCAPULOHUMERAL DYSTROPHY (FSHD)” (Fred Hutchinson Cancer Center, published 2026):
Changes are numbered by the printed parent chain.

B1: THE1D (dsDNA)
DNA 1: CCTGTGGGAGGTAATCCAATCATGGAGGCAG
DNA 2: CTGCCTCCATGATTGGATTACCTCCCACAGG
B2: THE1Dmut (dsDNA)
DNA 1: B1 DNA 1 with A14C, A18T, C21G
DNA 2: B1 DNA 2 with G11C, T14A, T18G
B3: TRIM48 (dsDNA)
DNA 1: AGGAGTGATGATAATTTAATCAGCCGTGCAA
DNA 2: TTGCACGGCTGATTAAATTATCATCACTCCT
B4: TRIM48mut (dsDNA)
DNA 1: B3 DNA 1 with A14C, A18T, C21G
DNA 2: B3 DNA 2 with G11C, T14A, T18G
B5: CSF1R (dsDNA)
DNA 1: CCAGGTGGAGATAATTGAATCATGGGGGCAG
DNA 2: CTGCCCCCATGATTCAATTATCTCCACCTGG
B6: CSF1Rmut (dsDNA)
DNA 1: B5 DNA 1 with A14C, A18T, C21G
DNA 2: B5 DNA 2 with G11C, T14A, T18G

What was measured:
DUX4-fl [1] = target: T1, DUX4-fl (Homo sapiens, UniProt Q9UBX2 SEQ:1-424); assay: EMSA; cold self competitor inhibits binding; details: tags: from pCS2-DUX4-fl, TNT SP6 wheat germ extract; label: 32P
Experimental: (§1) EMSA was performed with ³²P-labeled 31-bp oligonucleotides from endogenous genomic sequences containing the putative DUX4 binding site as probes (sequences below; only forward shown). Radiolabeled probes were incubated with in vitro translated protein generated from pCS2-DUX4-fl or pCS2-DUX4-s² vectors using the TNT SP6 Coupled Wheat Germ Extract System (Promega) according to manufacturer's instructions. To obtain supershift of protein-DNA complexes, 0.1 μg of E14-3 anti-DUX4 rabbit monoclonal antibody was added to the mixtures. For competition experiments, excess unlabeled probes of either wild-type or mutant sequences were included in the binding reaction. The gels were prepared and run as previously described (Knoepfler et al., Nucleic Acids Res 27:3752-3761 (1999)).

DUX4-fl [2] = target: T1, DUX4-fl; assay: competition; cold mutant does not compete with THE1D probe; details: tags: from pCS2-DUX4-fl, TNT SP6 wheat germ extract
Experimental: as §1

DUX4-fl [3] = target: T1, DUX4-fl; assay: EMSA; supershift with E14-3; cold self competitor reduces binding; details: tags: from pCS2-DUX4-fl, TNT SP6 wheat germ extract; label: 32P
Experimental: as §1

DUX4-s = DUX4-s (Homo sapiens); assay: EMSA; supershift with E14-3; details: tags: from pCS2-DUX4-s2, TNT SP6 wheat germ extract; label: 32P
Experimental: as §1

DUX4-fl [4] = target: T1, DUX4-fl; assay: competition; cold mutant does not compete with TRIM48 probe; details: tags: from pCS2-DUX4-fl, TNT SP6 wheat germ extract
Experimental: as §1

DUX4-fl [5] = target: T1, DUX4-fl; assay: competition; cold mutant does not compete with CSF1R probe; core printed as … in legend; details: tags: from pCS2-DUX4-fl, TNT SP6 wheat germ extract
Experimental: as §1

T1 sequence (Q9UBX2 whole entry): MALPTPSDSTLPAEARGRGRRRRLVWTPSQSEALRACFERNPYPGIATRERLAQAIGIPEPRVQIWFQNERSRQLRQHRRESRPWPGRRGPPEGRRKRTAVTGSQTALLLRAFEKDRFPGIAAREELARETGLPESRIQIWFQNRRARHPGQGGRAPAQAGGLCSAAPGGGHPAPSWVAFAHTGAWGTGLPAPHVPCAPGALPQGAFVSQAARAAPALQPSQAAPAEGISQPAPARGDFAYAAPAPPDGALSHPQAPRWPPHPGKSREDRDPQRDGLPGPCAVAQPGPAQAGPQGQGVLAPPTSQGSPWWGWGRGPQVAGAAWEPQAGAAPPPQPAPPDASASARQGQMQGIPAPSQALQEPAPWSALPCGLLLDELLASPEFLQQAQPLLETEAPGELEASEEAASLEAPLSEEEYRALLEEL
Sequence of DUX4-s (Homo sapiens) (Q6RFH8 other isoform, or with tags, fused parts or gaps): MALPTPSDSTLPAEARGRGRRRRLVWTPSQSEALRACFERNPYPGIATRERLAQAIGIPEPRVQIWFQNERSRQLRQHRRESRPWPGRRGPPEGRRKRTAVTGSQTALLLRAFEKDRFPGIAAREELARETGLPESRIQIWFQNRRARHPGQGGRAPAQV

Binder	binding result (DUX4-fl [1])	binding result (DUX4-s)	also measured
B1	binds		
B2			binding result (DUX4-fl [2]): no binding
B3		binds	binding result (DUX4-fl [3]): binds
B4			binding result (DUX4-fl [4]): no binding
B5	binds	binds	
B6			binding result (DUX4-fl [5]): no binding
